Test [1] deals with T1, recombinant human DLL3 (Example 9, construct not named) (human, UniProt Q9NYJ7 27-492, limits assumed).
T1 construct: also called DLL3 antigen
T1 sequence: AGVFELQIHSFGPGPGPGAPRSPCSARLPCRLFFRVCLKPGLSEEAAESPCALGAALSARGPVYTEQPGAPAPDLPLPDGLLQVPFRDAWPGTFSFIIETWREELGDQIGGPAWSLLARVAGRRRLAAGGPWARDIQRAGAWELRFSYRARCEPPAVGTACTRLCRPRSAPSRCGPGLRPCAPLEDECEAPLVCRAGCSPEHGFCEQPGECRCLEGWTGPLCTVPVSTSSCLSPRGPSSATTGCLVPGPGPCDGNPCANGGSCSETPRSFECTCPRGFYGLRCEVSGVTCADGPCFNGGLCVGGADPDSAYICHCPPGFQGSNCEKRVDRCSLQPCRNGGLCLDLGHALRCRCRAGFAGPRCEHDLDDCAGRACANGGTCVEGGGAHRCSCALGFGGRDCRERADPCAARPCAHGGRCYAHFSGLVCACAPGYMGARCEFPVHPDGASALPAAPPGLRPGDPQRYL
Nature of the test: SPR (Biacore T200), antibody captured by goat anti-Fc on a C1 chip, DLL3 titrated.

Test [2] has as its target T1, recombinant human DLL3 (Example 9, …). The description is as above. The source holds these as a separate data set.
Test [3] addresses T2, human DLL3 on DLL3+ tumor cells (human, UniProt Q9NYJ7 27-618).
T2 sequence: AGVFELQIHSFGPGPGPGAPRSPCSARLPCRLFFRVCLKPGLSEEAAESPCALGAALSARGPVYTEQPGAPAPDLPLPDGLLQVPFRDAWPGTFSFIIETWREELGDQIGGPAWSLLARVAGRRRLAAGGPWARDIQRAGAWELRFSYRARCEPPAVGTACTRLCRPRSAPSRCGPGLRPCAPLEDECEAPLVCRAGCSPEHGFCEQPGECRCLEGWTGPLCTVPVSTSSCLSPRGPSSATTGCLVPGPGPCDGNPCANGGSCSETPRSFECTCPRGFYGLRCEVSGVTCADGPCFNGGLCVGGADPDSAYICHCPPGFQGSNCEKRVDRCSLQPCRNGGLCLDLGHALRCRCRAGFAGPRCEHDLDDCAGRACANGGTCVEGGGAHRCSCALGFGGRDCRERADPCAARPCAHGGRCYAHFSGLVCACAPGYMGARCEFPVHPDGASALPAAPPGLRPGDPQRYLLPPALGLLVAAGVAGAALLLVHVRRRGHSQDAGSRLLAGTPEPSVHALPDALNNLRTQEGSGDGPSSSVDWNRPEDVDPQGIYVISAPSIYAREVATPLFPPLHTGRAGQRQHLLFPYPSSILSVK
Nature of the test: cell-based or functional assay.

In test [4] the target is T3, human CD3 (CD3 epsilon as part of the T cell receptor complex) on cells (human, UniProt P07766 23-207).
T3 construct: also called CD3 on Jurkat cells; CD3 on human pan T cells
T3 sequence (P07766 23-207 limits assumed, one chain of several): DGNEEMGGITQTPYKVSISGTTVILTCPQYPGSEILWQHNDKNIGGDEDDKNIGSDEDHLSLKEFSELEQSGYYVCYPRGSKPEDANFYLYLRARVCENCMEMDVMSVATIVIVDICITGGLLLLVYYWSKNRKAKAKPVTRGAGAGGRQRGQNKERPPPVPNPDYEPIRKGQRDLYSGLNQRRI
Nature of the test: flow cytometry on human pan T cells, antibody titrated 3-fold from 100 nM, AlexaFluor 647 anti-human secondary antibody, GEO Mean.

Test [5] deals with T4, DL3W35, extracellular domain of human DLL3 linked to a C-terminal 6xHis-Tag and a linker (human, UniProt Q9NYJ7 27-479).
T4 construct: also called human DLL3 ECD; huDLL3
T4 sequence: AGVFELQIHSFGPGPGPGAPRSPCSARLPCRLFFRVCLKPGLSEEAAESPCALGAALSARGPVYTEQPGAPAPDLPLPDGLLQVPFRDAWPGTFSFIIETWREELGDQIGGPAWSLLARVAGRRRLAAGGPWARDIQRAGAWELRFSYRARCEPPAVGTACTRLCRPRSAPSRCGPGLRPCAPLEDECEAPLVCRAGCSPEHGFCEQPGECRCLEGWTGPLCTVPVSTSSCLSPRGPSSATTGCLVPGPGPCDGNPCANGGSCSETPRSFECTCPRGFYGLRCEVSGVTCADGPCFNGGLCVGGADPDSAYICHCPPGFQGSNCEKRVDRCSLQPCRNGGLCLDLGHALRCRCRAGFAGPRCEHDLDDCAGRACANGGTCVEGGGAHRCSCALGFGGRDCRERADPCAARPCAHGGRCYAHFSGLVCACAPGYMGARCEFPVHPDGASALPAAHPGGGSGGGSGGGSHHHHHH
Nature of the test: SPR (ProteOn), antibody captured by anti-Fc, DLL3 (DL3W35) titrated.

Test [6] concerns the target T5, DL3W37, human DLL3 EGF6 domain, HSA Fusion and C-term 6His tag (human).
T5 construct: Fusion with the C34S variant of human serum albumin at the C-terminus of the DLL3 subdomain, plus 6xHis
The test can be described thus: MSD plate binding assay on coated DLL3 domain-HSA fusions.

Test [7] addresses T6, DL3W34, human DLL4 ECD (Ser27-Pro524), C-10xHis (human, UniProt Q9NR61 27-524).
T6 construct: also called huDLL4; TPP0000494661
The test can be described thus: SPR (ProteOn), antibody captured by anti-Fc; DLL4 at 100 nM and 1000 nM.

Test [8] has as its target T7, DL3W33, Recombinant Human DLL1 ECD (Ser22-Gly540), -DI-C-6xHis (human, UniProt O00548 22-540).
T7 construct: also called huDLL1; TPP000049465
T7 sequence: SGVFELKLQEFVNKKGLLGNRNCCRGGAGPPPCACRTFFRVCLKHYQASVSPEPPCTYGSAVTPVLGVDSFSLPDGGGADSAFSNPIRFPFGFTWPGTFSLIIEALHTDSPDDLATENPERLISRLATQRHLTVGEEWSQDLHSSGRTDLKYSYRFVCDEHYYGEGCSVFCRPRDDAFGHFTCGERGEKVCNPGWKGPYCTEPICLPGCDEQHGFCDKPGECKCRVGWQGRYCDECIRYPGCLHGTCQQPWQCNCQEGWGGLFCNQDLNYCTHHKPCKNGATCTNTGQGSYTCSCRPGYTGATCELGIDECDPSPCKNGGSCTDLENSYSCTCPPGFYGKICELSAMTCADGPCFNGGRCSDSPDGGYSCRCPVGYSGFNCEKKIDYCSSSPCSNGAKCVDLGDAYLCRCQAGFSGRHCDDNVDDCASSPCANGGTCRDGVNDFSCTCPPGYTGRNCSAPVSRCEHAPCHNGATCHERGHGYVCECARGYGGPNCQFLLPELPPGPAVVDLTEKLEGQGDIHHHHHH
The test can be described thus: SPR (ProteOn), antibody captured by anti-Fc; DLL1 at 100 nM and 1000 nM.

This is an account of results in patent publication US20240025992A1 (Janssen / Centocor, published 2024).

Read-outs that look alike come from different tables or passages of the source.

T5 sequence (chain, as listed by the source limits assumed): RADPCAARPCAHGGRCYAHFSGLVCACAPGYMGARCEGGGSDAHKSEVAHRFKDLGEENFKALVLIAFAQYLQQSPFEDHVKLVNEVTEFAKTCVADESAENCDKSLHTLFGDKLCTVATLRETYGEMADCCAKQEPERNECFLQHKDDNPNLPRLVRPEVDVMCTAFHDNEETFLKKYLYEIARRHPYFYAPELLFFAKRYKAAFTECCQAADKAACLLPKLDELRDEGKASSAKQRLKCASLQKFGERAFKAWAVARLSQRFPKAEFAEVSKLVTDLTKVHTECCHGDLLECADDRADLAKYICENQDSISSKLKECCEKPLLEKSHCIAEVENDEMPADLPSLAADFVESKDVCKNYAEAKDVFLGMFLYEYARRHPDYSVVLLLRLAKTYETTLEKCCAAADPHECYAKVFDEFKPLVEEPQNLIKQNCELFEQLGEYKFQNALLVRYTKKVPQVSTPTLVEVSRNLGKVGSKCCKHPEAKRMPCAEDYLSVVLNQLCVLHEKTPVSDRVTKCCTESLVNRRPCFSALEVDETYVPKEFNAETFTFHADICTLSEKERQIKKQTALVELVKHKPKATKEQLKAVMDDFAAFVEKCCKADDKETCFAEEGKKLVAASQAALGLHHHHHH
T6 sequence (Q9NR61 other isoform, or with tags, fused parts or gaps limits assumed): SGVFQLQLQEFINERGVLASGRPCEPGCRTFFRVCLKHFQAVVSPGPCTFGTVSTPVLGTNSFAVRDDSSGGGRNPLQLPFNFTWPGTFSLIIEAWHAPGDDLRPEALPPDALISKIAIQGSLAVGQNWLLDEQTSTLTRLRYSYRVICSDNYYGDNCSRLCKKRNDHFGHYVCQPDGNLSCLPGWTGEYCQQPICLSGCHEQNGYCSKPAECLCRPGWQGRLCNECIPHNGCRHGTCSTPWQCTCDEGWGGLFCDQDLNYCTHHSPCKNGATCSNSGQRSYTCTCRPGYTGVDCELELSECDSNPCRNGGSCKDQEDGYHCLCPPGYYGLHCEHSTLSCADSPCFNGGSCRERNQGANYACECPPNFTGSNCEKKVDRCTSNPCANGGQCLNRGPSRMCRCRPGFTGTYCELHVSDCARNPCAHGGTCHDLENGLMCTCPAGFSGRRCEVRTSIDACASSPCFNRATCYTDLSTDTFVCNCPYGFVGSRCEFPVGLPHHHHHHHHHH

B1: DL3B585 (bispecific antibody, human IgG1, lambda, L234A L235A)
scFv: DIQMTQSPSSLSASVGDRVTITCRASQGISNYLAWFQQKPGKAPKSLIYAASSLQSGVPSKFSGSGSGTDFTLTISSLQPEDFATYYCQQYNSYPYTFAQGTKLEIKGGSEGKSSGSGSESKSTGGSQVQLVQSGAEVKKPGASVKVSCKASGNTFTNYYIHWVRQAPGQGLEWMGIINPSGGSTSYAQKLQGRMTMTRDTSTSTVYMELSSLRSEDTAVYFCARQGPFIGDAFDIWGQGTMVTVSSEPKSSDKTHTCPPCPAPEAAGGPSVFLFPPKPKDTLMISRTPEVTCVVVSVSHEDPEVKFNWYVDGVEVHNAKTKPREEQYNSTYRVVSVLTVLHQDWLNGKEYKCKVSNKALPAPIEKTISKAKGQPREPQVYVLPPSREEMTKNQVSLLCLVKGFYPSDIAVEWESNGQPENNYLTWPPVLDSDGSFFLYSKLTVDKSRWQQGNVFSCSVMHEALHNHYTQKSLSLS
heavy: QVQLQQSGPRLVRPSQTLSLTCAISGDSVFNNNAAWSWIRQSPSRGLEWLGRTYYRSKWLYDYAVSVKSRITVNPDTSRNQFTLQLNSVTPEDTALYYCARGYSSSFDYWGQGTLVTVSSASTKGPSVFPLAPSSKSTSGGTAALGCLVKDYFPEPVTVSWNSGALTSGVHTFPAVLQSSGLYSLSSVVTVPSSSLGTQTYICNVNHKPSNTKVDKKVEPKSCDKTHTCPPCPAPEAAGGPSVFLFPPKPKDTLMISRTPEVTCVVVSVSHEDPEVKFNWYVDGVEVHNAKTKPREEQYNSTYRVVSVLTVLHQDWLNGKEYKCKVSNKALPAPIEKTISKAKGQPREPQVYVYPPSREEMTKNQVSLTCLVKGFYPSDIAVEWESNGQPENNYKTTPPVLDSDGSFALVSKLTVDKSRWQQGNVFSCSVMHEALHNHYTQKSLSLSPG
light: QSALTQPASVSGSPGQSITISCTGTSSNIGTYKFVSWYQQHPDKAPKVLLYEVSKRPSGVSSRFSGSKSGNTASLTISGLQAEDQADYHCVSYAGSGTLLFGGGTKLTVLGQPKAAPSVTLFPPSSEELQANKATLVCLISDFYPGAVTVAWKADSSPVKAGVETTTPSKQSNNKYAASSYLSLTPEQWKSHRSYSCQVTHEGSTVEKTVAPTECS
notes: DLL3 arm: DL3B279-LH-scFv-Fc; CD3 arm: CD3B376-Fab-Fc; also called CD3B376-Fab; DL3B279-LH-scFv
For the molecule B1, the dissociation constant (Kd) in test [1] and in test [2] was 0.024 nM each time. Besides, the “Cytotoxicity (% Lysis), SHP-77, whole PBMCs, 1:1 ET ratio, 30 nM” value in test [3] was determined as 58.1%.

B2: DL3B587 (bispecific antibody, human IgG1, kappa, L234A L235A)
scFv: DIQMTQSPSSLSASVGDRVTITCRASQGISNYLAWFQQKPGKAPKSLIYAASSLQSGVPSKFSGSGSGTDFTLTISSLQPEDFATYYCQQYNSYPYTFAQGTKLEIKGGSEGKSSGSGSESKSTGGSQVQLVQSGAEVKKPGASVKVSCKASGNTFTNYYIHWVRQAPGQGLEWMGIINPSGGSTSYAQKLQGRMTMTRDTSTSTVYMELSSLRSEDTAVYFCARQGPFIGDAFDIWGQGTMVTVSSEPKSSDKTHTCPPCPAPEAAGGPSVFLFPPKPKDTLMISRTPEVTCVVVSVSHEDPEVKFNWYVDGVEVHNAKTKPREEQYNSTYRVVSVLTVLHQDWLNGKEYKCKVSNKALPAPIEKTISKAKGQPREPQVYVLPPSREEMTKNQVSLLCLVKGFYPSDIAVEWESNGQPENNYLTWPPVLDSDGSFFLYSKLTVDKSRWQQGNVFSCSVMHEALHNHYTQKSLSLS
heavy: EVQLVESGGGLVKPGGSLRLSCAASGFTFSRYNMNWVRQAPGKGLEWVSSISTSSNYIYYADSVKGRFTFSRDNAKNSLDLQMSGLRAEDTAIYYCTRGWGPFDYWGQGTLVTVSSASTKGPSVFPLAPSSKSTSGGTAALGCLVKDYFPEPVTVSWNSGALTSGVHTFPAVLQSSGLYSLSSVVTVPSSSLGTQTYICNVNHKPSNTKVDKKVEPKSCDKTHTCPPCPAPEAAGGPSVFLFPPKPKDTLMISRTPEVTCVVVSVSHEDPEVKFNWYVDGVEVHNAKTKPREEQYNSTYRVVSVLTVLHQDWLNGKEYKCKVSNKALPAPIEKTISKAKGQPREPQVYVYPPSREEMTKNQVSLTCLVKGFYPSDIAVEWESNGQPENNYKTTPPVLDSDGSFALVSKLTVDKSRWQQGNVFSCSVMHEALHNHYTQKSLSLSPG
light: DIQMTQSPSSLSASVGDRVTITCRARQSIGTAIHWYQQKPGKAPKLLIKYASESISGVPSRFSGSGSGTDFTLTISSLQPEDFATYYCQQSGSWPYTFGQGTKLEIKRTVAAPSVFIFPPSDEQLKSGTASVVCLLNNFYPREAKVQWKVDNALQSGNSQESVTEQDSKDSTYSLSSTLTLSKADYEKHKVYACEVTHQGLSSPVTKSFNRGEC
notes: DLL3 arm: DL3B279-LH-scFv-Fc; CD3 arm: CD3W245-Fab-Fc; also called CD3W245-Fab; DL3B279-LH-scFv
B2: the Kd in test [1] was 0.031 nM. Besides, the binding result in test [4] was “binds”. Further, the “Cytotoxicity (% Lysis), SHP-77, whole PBMCs, 1:1 ET ratio, 30 nM” value in test [3] worked out at 83.3%.

B3: DL3B571 (Fc fusion)
scFv: EIVLTQSPGTLSLSPGERATLSCRASQSASSYLAWYQQKPGQAPRLLIYGASSRATGIPDRFSGSGSGTDFTLTISRLEPEDFAVYYCQQYNSSPYTFGQGTKLEIKGGSEGKSSGSGSESKSTGGSQVQLVQSGAEVKKPGASVKVSCKASGHIFISYYIHWVRQAPGQGLEWMGIIDPSGGSKSYAQKFQGRVTMTRDTSTSTVYMELSSLRSEDTAVYYCARQGMIVGTTGDAFDIWGQGTMVTVSS
notes: also called DL3B358 scFv-Fc; not shown: wild-type IgG1 Fc domain
B3 came in with a Kd in test [5] of 0.0734 nM. Also, the binding result in test [6] is recorded as “binds”; in test [7] it was “no binding (tested: 1000 nM)”; in test [8], “no binding (tested: 1000 nM)”.
